Substrate: COc1c(O)c(C)c(CC=C(C)C)c(O)c1OC
Assay: O2 consumption, Clark-type electrode
Format: biochemical, Escherichia coli
Conditions: no cardiolipin, 0.025% DDM, 50 mM MOPS, 100 mM NaCl, pH 7.5, 37 °C, 10 mM DTT

Row | Protein | Km
1 | cytochrome bo3 (E. coli) (Escherichia coli K-12) (protein, His-tagged complex overexpressed in E. coli GO105/pJRhisA, Ni-Sepharose-purified in DDM) MFGKLSLDAVPFHEPIVMVTIAGIILGGLALVGLITYFGKWTYLWKEWLTSVDHKRLGIMYIIVAIVMLLRGFADAIMMRSQQALASAGEAGFLPPHHYDQIFTAHGVIMIFFVAMPFVIGLMNLVVPLQIGARDVAFPFLNNLSFWFTVVGVILVNVSLGVGEFAQTGWLAYPPLSGIEYSPGVGVDYWIWSLQLSGIGTTLTGINFFVTILKMRAPGMTMFKMPVFTWASLCANVLIIASFPILTVTVALLTLDRYLGTHFFTNDMGGNMMMYINLIWAWGHPEVYILILPVFGVFSEIAATFSRKRLFGYTSLVWATVCITVLSFIVWLHHFFTMGAGANVNAFFGITTMIIAIPTGVKIFNWLFTMYQGRIVFHSAMLWTIGFIVTFSVGGMTGVLLAVPGADFVLHNSLFLIAHFHNVIIGGVVFGCFAGMTYWWPKAFGFKLNETWGKRAFWFWIIGFFVAFMPLYALGFMGMTRRLSQQIDPQFHTMLMIAASGAVLIALGILCLVIQMYVSIRDRDQNRDLTGDPWGGRTLEWATSSPPPFYNFAVVPHVHERDAFWEMKEKGEAYKKPDHYEEIHMPKNSGAGIVIAAFSTIFGFAMIWHIWWLAIVGFAGMIITWIVKSFDEDVDYYVPVAEIEKLENQHFDEITKAGLKNGN | 56 ± 13 µM
2 | cytochrome bd (E. coli) (Escherichia coli K-12) (protein, CydABX complex, Strep-tag, expressed in E. coli MB43, streptactin-purified in DDM) MLDIVELSRLQFALTAMYHFLFVPLTLGMAFLLAIMETVYVLSGKQIYKDMTKFWGKLFGINFALGVATGLTMEFQFGTNWSYYSHYVGDIFGAPLAIEGLMAFFLESTFVGLFFFGWDRLGKVQHMCVTWLVALGSNLSALWILVANGWMQNPIASDFNFETMRMEMVSFSELVLNPVAQVKFVHTVASGYVTGAMFILGISAWYMLKGRDFAFAKRSFAIAASFGMAAVLSVIVLGDESGYEMGDVQKTKLAAIEAEWETQPAPAAFTLFGIPDQEEETNKFAIQIPYALGIIATRSVDTPVIGLKELMVQHEERIRNGMKAYSLLEQLRSGSTDQAVRDQFNSMKKDLGYGLLLKRYTPNVADATEAQIQQATKDSIPRVAPLYFAFRIMVACGFLLLAIIALSFWSVIRNRIGEKKWLLRAALYGIPLPWIAVEAGWFVAEYGRQPWAIGEVLPTAVANSSLTAGDLIFSMVLICGLYTLFLVAELFLMFKFARLGPSSLKTGRYHFEQSSTTTQPAR | 95 ± 16 µM

From paper PMC8044227, “Cardiolipin enhances the enzymatic activity of cytochrome bd and cytochrome bo3 solubilized in dodecyl-maltoside” (Scientific Reports, 2021)
